# Experimental data as given in PMC7877763.
# How the values were obtained:
# [1] = molecular target: GPR-foldon (foldon stabilized collagen model peptide containing a (GPP)5GPR(GPP)6 collagen sequence); assay: ELISA; ELISA-like binding assay; type I collagen from rat tail coated at 10 ug/mL on MaxiSorp plates (coating of GPR-foldon not described); His-tagged HSP47 at 1.2 to 5,000 nM in solution; detected with HRP-coupled anti-His antibody; four-parameter logistic fit
# [2] = molecular target: GPR-foldon (foldon stabilized collagen model peptide containing a (GPP)5GPR(GPP)6 collagen sequence); assay: BLI; biotinylated GPR-foldon immobilised on streptavidin biosensors, blocked with 10 uM biocytin; HSP47 in solution; 50 mM Tris, 150 mM NaCl, pH 7.5 (TBS); kon and koff fitted with a 1:1 Langmuir model, KD = koff/kon
Kd [1],Kd [2],Substance
1500 nM,11500 nM,recombinant canine HSP47-R222S (from UniProt C7C419 36-418) (natural protein)
56 nM,409 nM,recombinant wild-type canine HSP47 (from UniProt C7C419 36-418) (natural protein)
